# Data: FireProtDB (doi:10.1016/s0022-2836(02)00737-4)
# B1: Tryptophan synthase alpha chain wild type, P0A877 (protein)
# chain: MERYESLFAQLKERKEGAFVPFVTLGDPGIEQSLKIIDTLIEAGADALELGIPFSDPLADGPTIQNATLRAFAAGVTPAQCFEMLALIRQKHPTIPIGLLMYANLVFNKGIDEFYAQCEKVGVDSVLVADVPVEESAPFRQAALRHNVAPIFICPPNADDDLLRQIASYGRGYTYLLSRAGVTGAENRAALPLNHLVAKLKEYNAAPPLQGFGISAPDQVKAAIDAGAAGAISGSAIVKIIEQHINEPEKMLAALKVFVQPMKAATRS
# Conditions: Escherichia coli (strain K12); pH 7.8; 25 °C; Urea; CD; potassium phosphate 10 mM; transition: 3; whole UniProt chain shown
protein,measurement,value
B1,denaturant m value,2.29 kcal/mol/M
same,denaturant midpoint (higher = more stable),2.68 M
same,unfolding free energy,6.13 kcal/mol
